From patent US20130336885A1 (Genentech, published 2013) come the findings set out here.

In assay [1] the target is T1, gD epitope-tagged mouse LgR5 expressed on stably transfected 293 cells (mouse, UniProt Q9Z1P4 22-907).
T1 construct: also called gD-tagged mouse LgR5
T1 sequence: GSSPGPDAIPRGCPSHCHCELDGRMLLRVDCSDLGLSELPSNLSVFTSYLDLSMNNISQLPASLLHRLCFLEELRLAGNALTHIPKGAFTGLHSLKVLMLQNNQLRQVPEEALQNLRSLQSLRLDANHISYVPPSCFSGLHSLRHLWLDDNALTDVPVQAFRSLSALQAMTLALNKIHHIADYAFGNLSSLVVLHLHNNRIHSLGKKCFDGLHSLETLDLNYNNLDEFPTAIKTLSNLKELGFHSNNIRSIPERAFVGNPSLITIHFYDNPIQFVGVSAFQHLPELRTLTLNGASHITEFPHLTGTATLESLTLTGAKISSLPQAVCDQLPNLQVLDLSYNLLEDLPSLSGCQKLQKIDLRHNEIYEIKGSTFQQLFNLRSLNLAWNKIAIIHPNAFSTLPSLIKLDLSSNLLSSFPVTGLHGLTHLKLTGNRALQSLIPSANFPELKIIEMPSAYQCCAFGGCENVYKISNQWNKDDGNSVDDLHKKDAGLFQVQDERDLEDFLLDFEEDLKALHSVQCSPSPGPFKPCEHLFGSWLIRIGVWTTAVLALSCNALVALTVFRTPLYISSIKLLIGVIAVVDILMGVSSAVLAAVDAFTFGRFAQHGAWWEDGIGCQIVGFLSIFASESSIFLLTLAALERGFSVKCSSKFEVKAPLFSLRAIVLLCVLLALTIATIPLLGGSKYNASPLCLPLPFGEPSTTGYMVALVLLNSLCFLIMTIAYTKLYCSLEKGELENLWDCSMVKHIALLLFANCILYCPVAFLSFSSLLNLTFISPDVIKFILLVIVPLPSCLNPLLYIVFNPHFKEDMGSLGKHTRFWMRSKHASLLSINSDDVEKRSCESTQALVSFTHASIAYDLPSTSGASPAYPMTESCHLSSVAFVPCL
Description: Scatchard analysis, 125I-labelled antibody competed by unlabelled antibody on stably transfected 293 cells. The method, then:
(§1) Scatchard analysis was performed following standard procedures (Holmes et al., Science 256:1205-1210 (1992)) to determine the relative binding affinities of YW353, ch8E11 and hu8E11v2 antibodies.
(§2) Anti-LgrS antibodies were [I¹²⁵] labeled using the indirect Iodogen method. […] Competition assay mixtures of 50 μL volume containing a fixed concentration of [I¹²⁵] labeled antibody and decreasing concentrations of serially diluted, unlabeled antibody were placed into 96-well plates. 293 cells stably expression human, rat, or mouse LgrS were cultured in growth media at 37° C. in 5% CO₂. Cells were detached from the flask using Sigma Cell Dissociation Solution and were washed with binding buffer, which consisted of Dulbecco's Modified Eagle Medium (DMEM) with 2% fetal bovine serum (FBS), 50 mM HEPES (pH 7.2) and 0.1% sodium azide. The washed cells were added to the 96 well plates at a density of 250,000 cells in 0.2 mL of binding buffer. The final concentration of the labeled antibody in each well was […]. The final concentration of the unlabeled antibody in the competition assay ranged from 500 nM through ten 2-fold diluation steps to a 0 nM buffer-only assay. Competition assays were carried out in triplicate. Competition assays were incubated for 2 hours at room temperature. After the 2-hour incubation, the competition assays were transferred to a Millipore Multiscreen filter plate (Billerica, Mass.) and washed 4 times with binding buffer to separate the free from bound [I¹²⁵] labeled antibody. The filters were counted on a Wallac Wizard 1470 gamma counter (PerkinElmer Life and Analytical Sciences Inc.; Wellesley, Mass.). The binding data was evaluated using NewLigand software (Genentech), which uses the fitting algorithm of Munson and Robard to determine the binding affinity of the antibody (Munson and Robard 1980)

Assay [2] concerns the target T2, gD epitope-tagged human LgR5 (full-length) expressed on transfected 293 cells (human, UniProt O75473 22-907).
T2 construct: also called gD-tagged human LgR5
T2 sequence: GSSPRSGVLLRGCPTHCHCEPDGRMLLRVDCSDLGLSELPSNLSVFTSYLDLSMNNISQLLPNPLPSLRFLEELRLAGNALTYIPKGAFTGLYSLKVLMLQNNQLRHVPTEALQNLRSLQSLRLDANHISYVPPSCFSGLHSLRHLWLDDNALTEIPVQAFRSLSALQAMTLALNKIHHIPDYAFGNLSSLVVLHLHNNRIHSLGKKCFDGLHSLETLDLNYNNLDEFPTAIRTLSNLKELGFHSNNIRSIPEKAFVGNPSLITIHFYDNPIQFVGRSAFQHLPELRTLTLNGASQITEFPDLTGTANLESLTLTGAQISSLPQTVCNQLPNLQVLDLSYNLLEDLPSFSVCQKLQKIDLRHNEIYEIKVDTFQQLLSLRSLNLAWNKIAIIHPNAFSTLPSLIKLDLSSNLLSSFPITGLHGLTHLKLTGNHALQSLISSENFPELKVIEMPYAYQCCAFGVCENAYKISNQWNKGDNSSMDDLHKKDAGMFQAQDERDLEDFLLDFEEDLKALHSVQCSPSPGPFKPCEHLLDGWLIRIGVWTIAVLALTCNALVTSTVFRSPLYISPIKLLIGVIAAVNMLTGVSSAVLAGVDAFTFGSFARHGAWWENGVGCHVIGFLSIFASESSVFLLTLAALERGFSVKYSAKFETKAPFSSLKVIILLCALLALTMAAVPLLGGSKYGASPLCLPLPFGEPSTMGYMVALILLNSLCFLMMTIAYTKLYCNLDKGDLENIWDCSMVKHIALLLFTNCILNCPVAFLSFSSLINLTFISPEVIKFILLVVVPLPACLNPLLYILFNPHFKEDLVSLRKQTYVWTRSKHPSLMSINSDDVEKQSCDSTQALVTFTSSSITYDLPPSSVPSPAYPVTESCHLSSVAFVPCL
The assay is described as above. The method, then: as §1, §2

B1: humanized monoclonal antibody 8E11.v2 (antibody, human IgG1, kappa, V domains shown)
VH: EVQLVQSGAEVKKPGASVKVSCKASGYTFSAYWIEWVRQAPGQGLEWIGEILPGSDSTDYNEKFKVRATFTSDTSTSTVYLELSSLRSEDTAVYYCARGGHYGSLDYWGQGTLVTVSS
VL: DIVMTQSPDSLAVSLGERATINCRASESVDNYGNSFMHWYQQKPGQPPKLLIYLASNLESGVPDRFSGSGSGTDFTLTISSLQAEDVAVYYCQQNYEDPFTFGQGTKVEIKR
notes: It was assessed as an IgG; also called hu8E11.v2; hu8E11v2
For the molecule B1, in assay [1], the equilibrium dissociation constant (Kd) (as a rule, the free concentration of one partner at which half of the binding sites on the other are occupied at equilibrium, for simple one-to-one binding) stood at 500 pM.

B2: chimeric monoclonal antibody 8E11 (antibody, human IgG1, V domains shown)
VH: QVQLQQSGTELMKPGASVKISCKATGYTFSAYWIEWIKQRPGHGLEWIGEILPGSDSTDYNEKFKVKATFSSDTSSNTVYIQLNSLTYEDSAVYYCARGGHYGSLDYWGQGTTLKVSS
VL: NIVLTQSPASLAVSLGQRATISCRASESVDNYGNSFMHWYQQKPGQPPKLLIYLASNLESGVPARFSGSGSRTDFTLTIDPVEADDAATYYCQQNYEDPFTFGSGTKVEIKR
notes: also called ch8E11; chimeric 8E11
For B2, the results for the Kd in assay [2] and in assay [1] were 400 pM and 200 pM, respectively.

B3: human antibody YW353 (antibody, human IgG1, kappa, V domains shown)
VH: EVQLVESGGGLVQPGGSLRLSCAASGFTFTSYSISWVRQAPGKGLEWVAEIYPPGGYTDYADSVKGRFTISADTSKNTAYLQMNSLRAEDTAVYYCAKARLFFDYWGQGTLVTVSS
VL: DIQMTQSPSSLSASVGDRVTITCRASQDVSTAVAWYQQKPGKAPKLLIYSASFLYSGVPSRFSGSGSGTDFTLTISSLQPEDFATYYCQQSYTTPPTFGQGTKVEIKR
notes: also called huYW353
On to B3, for which, in assay [2], the equilibrium dissociation constant (Kd) stood at 200 pM.
